This passage reports inhibition of BMP-2-induced ALP activity in C2C12 cells; noggin results from patent US20170106012A1.

This test concerns the target T1, Bone morphogenetic protein 2 (BMP-2), recombinant human (Homo sapiens) (UniProt P12643).
T1 sequence: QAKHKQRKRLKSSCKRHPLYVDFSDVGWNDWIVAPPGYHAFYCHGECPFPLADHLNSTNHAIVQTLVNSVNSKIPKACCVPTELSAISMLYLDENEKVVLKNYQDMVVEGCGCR
The test is described as follows: cell-based or functional assay.

B1: noggin (protein, UniProt Q13253 28-232, looked up, species assumed)
Noggin: QHYLHIRPAPSDNLPLVDLIEHPDPIFDPKEKDLNETLLRSLLGGHYDPGFMATSPPEDRPGGGGGAAGGAEDLAELDQLLRQRPSGAMPSEIKGLEFSEGLAQGKKQRLSKKLRRKLQMWLWSQTFCPVLYAWNDLGSRFWPRYVKVGSCFSKRSCSVPEGMVCKPSKSVHLTVLRWRCQRRGGQRCGWIPIQYPIISECKCSC
For the molecule B1, the inhibition of BMP-2-induced ALP activity in C2C12 cells; noggin at 30 ng/ml, BMP-2 at 100 ng/ml, no GAG was found to be 14 percent; the inhibition of BMP-2-induced ALP activity in C2C12 cells; noggin at 30 ng/ml, in the presence of HS+ve was determined as 2 percent; the inhibition of BMP-2-induced ALP activity in C2C12 cells; noggin at 30 ng/ml, in the presence of HSpm turned out to be 4 percent; the inhibition of BMP-2-induced ALP activity in C2C12 cells; noggin at 100 ng/mL, in the presence of HS-ve was determined as 75 percent. In addition, the inhibition of BMP-2-induced ALP activity in C2C12 cells; noggin at 100 ng/ml, BMP-2 at 100 ng/ml, no GAG worked out at 95 percent; the inhibition of BMP-2-induced ALP activity in C2C12 cells; noggin at 100 ng/ml, in the presence of HS+ve came to 43 percent; the inhibition of BMP-2-induced ALP activity in C2C12 cells; noggin at 100 ng/ml, in the presence of HSpm was found to be 62 percent.
